We go through six molecules from patent US20230174669A1 (ALIADA THERAPEUTICS, published 2023).

To fix the notation:
T1: human CD98hc (human, UniProt P08195 105-529)
T1 construct: Soluble protein flowed over captured tripod mAbs in SPR; also called huCD98hc; human CD98 heavy chain
T1 sequence: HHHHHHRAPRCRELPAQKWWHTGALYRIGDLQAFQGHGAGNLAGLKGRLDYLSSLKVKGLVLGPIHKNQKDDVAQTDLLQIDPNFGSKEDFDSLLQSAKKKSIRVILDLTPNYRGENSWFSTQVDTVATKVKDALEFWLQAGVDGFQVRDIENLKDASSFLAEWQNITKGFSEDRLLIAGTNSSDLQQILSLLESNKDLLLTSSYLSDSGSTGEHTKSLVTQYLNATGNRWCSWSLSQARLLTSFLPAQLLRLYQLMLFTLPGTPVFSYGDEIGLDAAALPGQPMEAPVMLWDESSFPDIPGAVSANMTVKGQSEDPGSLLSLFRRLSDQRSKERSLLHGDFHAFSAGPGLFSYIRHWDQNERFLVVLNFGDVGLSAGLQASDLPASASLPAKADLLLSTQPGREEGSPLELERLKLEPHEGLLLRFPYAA

B1: BBBB1202 (bispecific antibody)
heavy 1: EVQLVESGGGLVKPGGSLRLSCAASGFTFSSYAMSWVRQAPGKGLEWVASISKGGNTYYPDSVKGRFTISRDNAKNSLYLQMNSLRAEDTAVYYCARGWGDYGWFAYWGQVTLVTVSSASTKGPSVFPLAPSSKSTSGGTAALGCLVKDYFPEPVTVSWNSGALTSGVHTFPAVLQSSGLYSLSSVVTVPSSSLGTQTYICNVNHKPSNTKVDKKVEPKSCDKTHTCPPCPAPEAAGGPSVFLFPPKPKDTLYITREPEVTCVVVSVSHEDPEVKFNWYVDGVEVHNAKTKPREEQYNSTYRVVSVLTVLHQDWLNGKEYKCKVSNKALPAPIEKTISKAKGQPREPQVYVYPPSREEMTKNQVSLTCLVKGFYPSDIAVEWESNGQPENNYKTTPPVLDSDGSFALVSKLTVDKSRWQQGNVFSCSVMHEALHNHYTQKSLSLSPGGGAGGAQVQLVESGGGVVQPGRSLRLSCAASGFTFSSYGMHWVRQAPGKGLEWVAIISYDGSNKHYADSVKGRFTISRDNSKNTLYLQMNSLRAEDTAVYYCARAPSHFYFDYWGQGTLVTVSSGTEGKSSGSGSESKSTDIVMTQSPDSLAVSLGERATINCKSSQSVLFSSNNKNYLAWYQQKPGQPPKLLIYWASTRESGVPDRFSGSGSGTDFTLTISSLQAEDVAVYYCQQYYSTPPTFGQGTKVVIK
light: DIQMTQSPSSLSASVGDRVTITCKASQDINRYLNWFQQKPGKAPKTLIYRANRLLDGVPSRFSGSGSGTDFTLTISSLQPEDFATYYCQQYDEFPLTFGQGTKLEIKRTVAAPSVFIFPPSDEQLKSGTASVVCLLNNFYPREAKVQWKVDNALQSGNSQESVTEQDSKDSTYSLSSTLTLSKADYEKHKVYACEVTHQGLSSPVTKSFNRGEC
heavy 2: EVQLVESGGGLVKPGGSLRLSCAASGFTFSSYAMSWVRQAPGKGLEWVASISKGGNTYYPDSVKGRFTISRDNAKNSLYLQMNSLRAEDTAVYYCARGWGDYGWFAYWGQVTLVTVSSASTKGPSVFPLAPSSKSTSGGTAALGCLVKDYFPEPVTVSWNSGALTSGVHTFPAVLQSSGLYSLSSVVTVPSSSLGTQTYICNVNHKPSNTKVDKKVEPKSCDKTHTCPPCPAPEAAGGPSVFLFPPKPKDTLYITREPEVTCVVVSVSHEDPEVKFNWYVDGVEVHNAKTKPREEQYNSTYRVVSVLTVLHQDWLNGKEYKCKVSNKALPAPIEKTISKAKGQPREPQVYVLPPSREEMTKNQVSLLCLVKGFYPSDIAVEWESNGQPENNYLTWPPVLDSDGSFFLYSKLTVDKSRWQQGNVFSCSVMHEALHNHYTQKSLSLSPG
B2: BBBB1201 (bispecific antibody)
heavy 1: B1 heavy 1 with H555A
light: B1 light
heavy 2: B1 heavy 2
B3: BBBB1067 (bispecific antibody)
heavy 1: B1 heavy 1 with H555S
light: B1 light
heavy 2: B1 heavy 2
notes: also called tripod mAb Anti-Tau IgG1 AAS YTE with C98hc4
B4: BBBB1070 (bispecific antibody, human IgG1, kappa, L234A L235A)
heavy 1: EVQLVESGGGLVKPGGSLRLSCAASGFTFSSYAMSWVRQAPGKGLEWVASISKGGNTYYPDSVKGRFTISRDNAKNSLYLQMNSLRAEDTAVYYCARGWGDYGWFAYWGQVTLVTVSSASTKGPSVFPLAPSSKSTSGGTAALGCLVKDYFPEPVTVSWNSGALTSGVHTFPAVLQSSGLYSLSSVVTVPSSSLGTQTYICNVNHKPSNTKVDKKVEPKSCDKTHTCPPCPAPEAAGGPSVFLFPPKPKDTLYITREPEVTCVVVSVSHEDPEVKFNWYVDGVEVHNAKTKPREEQYNSTYRVVSVLTVLHQDWLNGKEYKCKVSNKALPAPIEKTISKAKGQPREPQVYVYPPSREEMTKNQVSLTCLVKGFYPSDIAVEWESNGQPENNYKTTPPVLDSDGSFALVSKLTVDKSRWQQGNVFSCSVMHEALHNHYTQKSLSLSPGGGAGGAQVQLQESGPGLVKPSETLSLTCTVSGGSISSSYWSWIRQPPGKGLEWIGYIYNSGSTNYNPSLKSRVTISVDTSKNQFSLKLSSVTAADTAVYYCARETYYFDYWGQGTLVTVSSGTEGKSSGSGSESKSTDIVMTQSQKFMSTSVGDRVSVTCKASQNVGINVAWYQKKPGQPPKALIYSAAYRYSGVPDRFTGSGSGTDFTLTISNVQSEDLAEYFCQQYNSYPLTFGSGTKLEIK
light: B1 light
heavy 2: B1 heavy 2
notes: also called tripod mAb Anti-Tau IgG1 AAS YTE with C98hc5
B5: BBBB1061 (bispecific antibody, human IgG1, kappa, L234A L235A)
heavy 1: EVQLVESGGGLVKPGGSLRLSCAASGFTFSSYAMSWVRQAPGKGLEWVASISKGGNTYYPDSVKGRFTISRDNAKNSLYLQMNSLRAEDTAVYYCARGWGDYGWFAYWGQVTLVTVSSASTKGPSVFPLAPSSKSTSGGTAALGCLVKDYFPEPVTVSWNSGALTSGVHTFPAVLQSSGLYSLSSVVTVPSSSLGTQTYICNVNHKPSNTKVDKKVEPKSCDKTHTCPPCPAPEAAGGPSVFLFPPKPKDTLYITREPEVTCVVVSVSHEDPEVKFNWYVDGVEVHNAKTKPREEQYNSTYRVVSVLTVLHQDWLNGKEYKCKVSNKALPAPIEKTISKAKGQPREPQVYVYPPSREEMTKNQVSLTCLVKGFYPSDIAVEWESNGQPENNYKTTPPVLDSDGSFALVSKLTVDKSRWQQGNVFSCSVMHEALHNHYTQKSLSLSPGGGAGGAQVQLVESGGGLVQAGGSLRLSCAASGRAFSSNGMGWFRQAPGKEREFVATISCSGTSTYYADSVKGRFTISRDNAKNTVYLQMNSLKPEDTAVYFCAADTRHCMGYTKDEGYAYWGQGTQVTVSS
light: B1 light
heavy 2: B1 heavy 2
notes: also called tripod mAb Anti-Tau IgG1 AAS YTE with C98hc2
B6: BBBB1065 (bispecific antibody)
heavy 1: B1 heavy 1 with A235L, A236L, Y253M, T255S, E257T, S266D, H555S
light: B1 light
heavy 2: B1 heavy 2 with A235L, A236L, Y253M, T255S, E257T, S266D
notes: also called tripod mAb Anti-Tau IgG1 with C98hc4

Changes are numbered by the printed parent chain.

For the first experiment, the target named is T1, human CD98hc. In words: SPR ProteOn, mAb captured by anti-Fc, huCD98hc flowed, 1:1 model.
Procedure: An Fc capture surface was generated by coupling anti-IgG Fc mAb (Jackson ImmunoResearch) to a GLC chip (BioRad) using the amine-coupling chemistry (BioRad).
The chip surface was regenerated with two 18 second pulses of 100 mM H3PO4 (Sigma) at 100 μL/min. The collected data were processed using ProteOn Manager software V3.1.0.6 (BioRad). First, the data was corrected for background using inter-spots. Then, double reference subtraction of the data was performed by using the buffer injection for analyte injections. The kinetic analysis of the data was performed using a Langmuir 1:1 binding model.
In the case of B1, the Kd is 52.9 nM, the koff amounted to 0.00882 s⁻¹ and the kon came to 167000 M⁻¹ s⁻¹.

In turn, B2 returned a Kd of 16.9 nM, a koff of 0.006 s⁻¹ and a kon of 357000 M⁻¹ s⁻¹.

A further experiment deals with T1, human CD98hc. In words: SPR ProteOn, anti-Tau tripod mAb captured by anti-Fc, huCD98hc flowed.
In turn, B3 returned a Kd of 3.15 nM, a koff of 0.00138 s⁻¹ and a kon of 439000 M⁻¹ s⁻¹.

As for B4, binding was characterised by a dissociation constant (Kd) of 118 nM, the koff stood at 0.00648 s⁻¹ and the kon was found to be 55700 M⁻¹ s⁻¹.

Take B5: the affinity, expressed as Kd, was 1.46 nM; the koff stood at 0.00135 s⁻¹; the kon stood at 935000 M⁻¹ s⁻¹.

With B6, the Kd came to 2.96 nM, the koff turned out to be 0.00139 s⁻¹ and the on-rate constant (kon) is 470000 M⁻¹ s⁻¹.

What is called Kd is the concentration at which binding is half-saturated. The koff is a measure of how fast the partners let go of each other. The kon is a measure of how fast the partners come together. Low readings indicate slow association, high ones fast association.
